Legend:
[1] = target: yeast alcohol dehydrogenase (ADH) from Saccharomyces cerevisiae (Saccharomyces cerevisiae) (UniProt P00330); assay: native MS
native MS = target: the molecule itself; assay: native MS

yeast alcohol dehydrogenase (ADH) from Saccharomyces cerevisiae, sequence (P00330 whole entry): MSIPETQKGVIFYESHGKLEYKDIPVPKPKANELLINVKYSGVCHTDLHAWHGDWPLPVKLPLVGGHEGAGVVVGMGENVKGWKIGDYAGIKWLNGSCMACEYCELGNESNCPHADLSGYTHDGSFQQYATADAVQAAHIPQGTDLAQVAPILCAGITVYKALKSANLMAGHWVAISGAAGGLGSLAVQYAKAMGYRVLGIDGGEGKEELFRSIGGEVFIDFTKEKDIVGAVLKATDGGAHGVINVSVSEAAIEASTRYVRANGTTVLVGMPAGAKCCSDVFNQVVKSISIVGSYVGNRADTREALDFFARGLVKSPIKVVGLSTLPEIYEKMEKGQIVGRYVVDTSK

stoichiometry N [1]	Molecule	stoichiometry N (native MS)
4	yeast alcohol dehydrogenase (ADH) from Saccharomyces cerevisiae (from UniProt P00330 1-348) (enzyme)	
	Fenna-Matthews-Olson (FMO) antenna protein from the green sulfur bacterium Chlorobaculum tepidum (natural protein, UniProt Q46393 1-366, looked up) MALFGSNDVTTAHSDYEIVLEGGSSSWGKVKARAKVNAPPASPLLPADCDVKLNVKPLDPAKGFVRISAVFESIVDSTKNKLTIEADIANETKERRISVGEGMVSVGDFSHTFSFEGSVVNLFYYRSDAVRRNVPNPIYMQGRQFHDILMKVPLDNNDLIDTWEGTVKAIGSTGAFNDWIRDFWFIGPAFTALNEGGQRISRIEVNGLNTESGPKGPVGVSRWRFSHGGSGMVDSISRWAELFPSDKLNRPAQVEAGFRSDSQGIEVKVDGEFPGVSVDAGGGLRRILNHPLIPLVHHGMVGKFNNFNVDAQLKVVLPKGYKIRYAAPQYRSQNLEEYRWSGGAYARWVEHVCKGGVGQFEILYAQ	3
